For orientation: Kd means the equilibrium constant for the complex coming apart.

The values that follow come from patent US20180142030A1 (Bristol-Myers Squibb, published 2018).

Assay [1] deals with T1, FcγRIIb (human, UniProt P31994 43-217, limits assumed).
T1 construct: Construct not described; also called hCD32b/FcγRIIb
T1 sequence (looked up): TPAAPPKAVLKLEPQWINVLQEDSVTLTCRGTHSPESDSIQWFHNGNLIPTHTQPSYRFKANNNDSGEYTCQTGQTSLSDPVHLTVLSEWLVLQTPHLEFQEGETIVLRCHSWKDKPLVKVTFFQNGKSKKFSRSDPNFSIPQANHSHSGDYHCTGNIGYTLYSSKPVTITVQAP
Kind of assay: BLI (ForteBio Octet), %Rmax at 1 µM hCD32b/FcγRIIb. The procedure: (§1) See Example 8. Antibody names including “-sup” represent supernatants from antibody producing cells, whereas others are purified antibodies. Data are presented as percentages of a maximum receptor binding value for each combination of antibody and receptor, as measured in a ForteBio Octet system. See, e.g., Example 3. Each cluster of three bars represents, from left to right, binding to hCD32a/FcγRIIa-H131 (10 μM) (hatched bars), […] (10 μM) (black bars), and hCD32b/FcγRIIb (1 μM) (white bars).
(§2) Supernatants were obtained from cells expressing these antibodies and assayed for binding to hCD32/FcγRII. Selected purified antibodies without mutations at position 270 were used as controls.
For orientation: BLI is a label-free optical method that tracks binding on a fibre tip over time.

Assay [2] addresses T2, FcγRIIa-R131 (human, UniProt P12318 34-218, limits assumed).
T2 construct: Construct not described
T2 sequence (looked up): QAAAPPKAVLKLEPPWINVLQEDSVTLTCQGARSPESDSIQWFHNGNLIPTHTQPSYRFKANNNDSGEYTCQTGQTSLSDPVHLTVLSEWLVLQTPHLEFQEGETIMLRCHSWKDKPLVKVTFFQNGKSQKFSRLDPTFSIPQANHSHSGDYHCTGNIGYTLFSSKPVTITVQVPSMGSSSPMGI
Description: BLI (ForteBio Octet), %Rmax at 10 µM FcγRIIa-R131 (CD32a-R131 on the sheet). The procedure: as §1, §2

Assay [3] deals with T3, recombinant human CD40 monomer (human, UniProt P25942 21-193).
T3 construct: also called huCD40-monomer; soluble human CD40
Kind of assay: BLI (Octet RED); antibody supernatant captured on protein A sensors, huCD40-monomer in solution. The source says: The closest matching human germline region sequence was selected for each mouse variable domain, and these human framework regions were used to replace murine frameworks in the “CDR graft” versions of the antibodies. Additional amino acid substitutions, such as framework back-mutations, were then made as necessary to restore the binding affinity of the humanized antibody. Further amino acid substitutions were made to eliminate sequence liabilities. The sequence relationships between the various forms of the antibodies of the present invention are provided at Table 6. The binding of various agonistic anti-huCD40 antibodies to soluble human CD40 was determined by Biolayer Interferometry (BLI) analysis using a Fortebio Octet RED (Rapid system—Extended Detection) label-free interaction analysis instrument. All studies were performed in 10 mM NaₓPO₄, 130 mM NaCl, 0.05% Surfactant P20 (pH 7.1) at 25° C. Briefly, anti-huCD40 antibody supernatants (diluted to 10 μg/ml or captured undiluted if supernatant concentration was less than 10 μg/ml) were captured on protein A coated biosensors (Pall Fortebio #18-5010) using a loading time of 90 s and shake speed of 1000 rpm. Supernatants were first screened for binding to 1 μM recombinant human CD40 monomer (huCD40-monomer) using 180 s association and dissociation times, at 1000 rpm, with two 15 s conditioning steps using 10 mM glycine pH 1.5 in between binding cycles.

T3 sequence (P25942 21-193 limits assumed): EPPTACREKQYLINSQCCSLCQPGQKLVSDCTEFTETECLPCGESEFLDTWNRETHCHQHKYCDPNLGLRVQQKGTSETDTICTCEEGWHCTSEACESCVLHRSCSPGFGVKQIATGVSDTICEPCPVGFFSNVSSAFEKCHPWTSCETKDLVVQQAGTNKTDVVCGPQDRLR

B1: 12D6-24 V4 D270E (antibody, human IgG1, kappa)
heavy: QVQLVQSGAEVKKPGASVKVSCKASGYTFTGYNMNWVRQAPGQGLEWMGNIDPYYGNTNYNQKFKGRVTMTTDTSTSTAYMELRSLRSDDTAVYYCARLGLQLYALDYWGQGTTVTVSSASTKGPSVFPLAPSSKSTSGGTAALGCLVKDYFPEPVTVSWNSGALTSGVHTFPAVLQSSGLYSLSSVVTVPSSSLGTQTYICNVNHKPSNTKVDKRVEPKSCDKTHTCPPCPAPELLGGDSVFLFPPKPKDTLMISRTPEVTCVVVDVSHEEGEVKFNWYVDGVEVHNAKTKPREEQYNSTYRVVSVLTVLHQDWLNGKEYKCKVSNKALPAPIEKTISKAKGQPREPQVYTLPPSREEMTKNQVSLTCLVKGFYPSDIAVEWESNGQPENNYKTTPPVLDSDGSFFLYSKLTVDKSRWQQGNVFSCSVMHEALHNHYTQKSLSLSPG
light: DIVMTQTPLSLPVTPGEPASISCRSSQSLVHSNANTYLHWYLQKPGQSPQLLIYKLTNRFFGVPDRFSGSGSGTDFTLKISRVEAEDVGVYYCSQSIHVPWTFGGGTKVEIKRTVAAPSVFIFPPSDEQLKSGTASVVCLLNNFYPREAKVQWKVDNALQSGNSQESVTEQDSKDSTYSLSSTLTLSKADYEKHKVYACEVTHQGLSSPVTKSFNRGEC
Take B1: the binding result in assay [1] and in assay [2] was “binds” each time.

B2: 12D6-24-V9-DT-sup (antibody)
heavy: QVQLVQSGAEVKKPGASVKVSCKASGYTFTGYNMNWVRQAPGQGLEWMGNIDPYYGNTNYNQKFKGRVTMTTDTSTSTAYMELRSLRSDDTAVYYCARLGLQLYALDYWGQGTTVTVSSASTKGPSVFPLAPSSKSTSGGTAALGCLVKDYFPEPVTVSWNSGALTSGVHTFPAVLQSSGLYSLSSVVTVPSSSLGTQTYICNVNHKPSNTKVDKRVEPKSCDKTHTCPPCPAPELLGDDSVFLFPPKPKDTLMISRTPEVTCVVVDVSHETGEVKFNWYVDGVEVHNAKTKPREEQYNSTYRVVSVLTVLHQDWLNGKEYKCKVSNKALPRPIEKTISKAKGQPREPQVYTLPPSREEMTKNQVSLTCLVKGFYPSDIAVEWESNGQPENNYKTTPPVLDSDGSFFLYSKLTVDKSRWQQGNVFSCSVMHEALHNHYTQKSLSLSPG
light: DIVMTQTPLSLPVTPGEPASISCRSSQSLVHSNANTYLHWYLQKPGQSPQLLIYKLTNRFFGVPDRFSGSGSGTDFTLKISRVEAEDVGVYYCSQSIHVPWTFGGGTKVEIKRTVAAPSVFIFPPSDEQLKSGTASVVCLLNNFYPREAKVQWKVDNALQSGNSQESVTEQDSKDSTYSLSSTLTLSKADYEKHKVYACEVTHQGLSSPVTKSFNRGEC
notes: Tested as supernatant of antibody-producing cells; also called 12D6-24 V9 D270T; copies: 2 + 2
In the case of B2, the binding result in assay [1] and in assay [2] was “binds” throughout.

B3: 8E8-67 (antibody, human IgG1, kappa, V domains shown)
VH: QVQFVQSGAEVKKPGSSVKVSCKASGYTFTSYWMQWVRQAPGQGLEWMGTIYPGDGDSRYNQKFKGKALLTADKSTSTAYMELSSLRSEDTAVYYCARFSLYEGYPYYFDYWGQGTTVTVSS
VL: DIVMTQSPLSLPVTPGEPASISCRSSQSLVHRNANTYLHWYLQKPGQSPQLLIYRVSNRFSGVPDRFSGSGSGTDFTLKISRVEAEDVGVYYCSQSTHFPYTFGGGTKVEIKR
notes: Humanized; IgG1f
Regarding B3, the Kd in assay [3] amounted to 28 nM.

B4: 8E8-71 (antibody, human IgG1, kappa, V domains shown)
VH: QVQFVQSGAEVKKPGSSVKVSCKASGYTFTSYWMQWVRQAPGQGLEWMGTIYPGDSDSRYNQKFKGKALLTADKSTSTAYMELSSLRSEDTAVYYCARFSLYEGYPYYFDYWGQGTTVTVSS
VL: DIVMTQSPLSLPVTPGEPASISCRSSQSLVHRNANTYLHWYLQKPGQSPQLLIYRVSNRFSGVPDRFSGSGSGTDFTLKISRVEAEDVGVYYCSQSTHFPYTFGGGTKVEIKR
notes: Humanized; IgG1f
As to B4, the binding result in assay [3] was “binds”.

B5: 8E8-70 (antibody, human IgG1, kappa, V domains shown)
VH: QVQFVQSGAEVKKPGSSVKVSCKASGYTFTSYWMQWVRQAPGQGLEWMGTIYPGDSDSRYNQKFKGKALLTADKSTSTAYMELSSLRSEDTAVYYCARFSLYEGYPYYFDYWGQGTTVTVSS
VL: DIVMTQSPLSLPVTPGEPASISCRSSQSLVHRNGNTYLHWYLQKPGQSPQLLIYRVSNRFSGVPDRFSGSGSGTDFTLKISRVEAEDVGVYYCSQSTHFPYTFGGGTKVEIKR
notes: Humanized; IgG1f
For B5, the binding result in assay [3] is on record as “binds”.
